According to patent EP4631959A2, “NOVEL MINIGASTRIN-DERIVED CHOLECYSTOKININ 2 RECEPTOR BINDING MOLECULES FOR IMAGING AND TARGETED RADIOTHERAPY” (priority 2022, dated 2024):
Read-outs that look alike come from different tables or passages of the source. Starred links: 1 amine or outer side, 2 acyl side, 3 side chain; linkers in the order of their positions; H or OH if unused. Non-standard residues stand in square brackets, D forms with d. Residues, ends and D or L forms follow the SMILES beside them. *: point of attachment. X3 = CC(C)(C)[Si](F)(c1ccc(C(=O)NC[C@@H](NC(=O)CN2CCN(CC(=O)O)CCN(CC(=O)O)CCN(CC(=O)O)CC2)C(=O)*)cc1)C(C)(C)C; DOTA = O=C(O)CN1CCN(CC(=O)O)CCN(CC(=O)*)CCN(CC(=O)O)CC1; NODAGA = O=C(O)CN1CCN(CC(=O)O)CCN(C(CCC(=O)*)C(=O)O)CC1; NOTA = O=C(O)CN1CCN(CC(=O)O)CCN(CC(=O)*)CC1; d(γGlu) = O=C(O)[C@@H](CCC(=O)[*:2])N[*:1]; 1Nal = N[C@@H](Cc1cccc2ccccc12)C(=O)O; NMeNle = CCCC[C@H](NC)C(=O)O; PEG4 = NCCOCCOCCOCCOCCC(=O)O; dOrn = NCCC[C@@H](N)C(=O)O; PEG3 = NCCOCCOCCOCCC(=O)O; Nle = CCCC[C@H](N)C(=O)O; AEEA = NCCOCCOCC(=O)O

How the values were obtained:
[1] = molecular target: T1, CCK-2R (Rattus norvegicus, UniProt P30553); test: Determination of IC50: CCK-2R affinity on AR4-2J cells, competition with [^177Lu]Lu-DOTA-PP-F11N; format: binding; settings: AR4-2J cells
T1 construct: The CCK-2R expressing rat pancreatic tumor cells AR4-2J; host or cells: AR4-2J rat pancreatic tumor cells
T1 sequence (P30553 1-452): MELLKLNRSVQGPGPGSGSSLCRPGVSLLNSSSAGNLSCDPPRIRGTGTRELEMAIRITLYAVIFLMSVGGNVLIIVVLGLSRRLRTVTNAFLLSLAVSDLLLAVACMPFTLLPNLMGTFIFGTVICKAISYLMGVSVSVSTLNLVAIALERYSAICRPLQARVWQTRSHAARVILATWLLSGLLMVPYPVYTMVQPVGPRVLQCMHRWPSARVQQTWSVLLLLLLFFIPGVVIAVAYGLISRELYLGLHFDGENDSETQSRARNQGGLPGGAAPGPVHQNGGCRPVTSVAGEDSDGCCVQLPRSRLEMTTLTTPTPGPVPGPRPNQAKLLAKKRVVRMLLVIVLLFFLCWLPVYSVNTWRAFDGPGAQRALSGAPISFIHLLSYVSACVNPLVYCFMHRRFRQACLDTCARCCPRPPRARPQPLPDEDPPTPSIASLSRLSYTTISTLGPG
Method: AR4-2J cells were harvested 24 ± 2 h before the experiment and seeded in 24-well plates (2.0 × 10^5 cells in 1 mL/well). After removal of the nutrient medium (RPMI 1640, 5 mM L-Gln, 5 mL non-essential amino acids (100×), 10% FCS), the cells were washed once with 500 µL PBS. Thereafter, 200 µL nutrient medium (5% BSA, v/v) were added. Next, 25 µL per well of solutions containing either nutrient medium (5% BSA, v/v) as control or the respective compound in increasing concentration (10^-10 - 10^-4 M), were added with subsequent addition of 25 µL [^177Lu]Lu-DOTA-PP-F11N (0.3 pmol/well).
All experiments were performed in triplicate for each concentration. After 3 h incubation at 37 °C, the experiment was terminated by removal of the medium and consecutive rinsing with 300 µL PBS. The media of both steps were combined in one fraction and represent the amount of free radiolabeled reference. Afterwards, the cells were lysed with 300 µL of 1 M NaOH for at least 15 min and united with the 300 µL NaOH of the following washing step. Quantification of bound and free radiolabeled reference was accomplished in a γ-counter. IC50 determination for each conjugate was repeated twice.

[2] = n-Octanol-PBS distribution coefficient (logD7.4); format: physicochemical; settings: pH = 7.4, ^177Lu-labeled
Method: Approximately 1 MBq of the labeled tracer was dissolved in 1 mL of a 1/1 mixture (v/v) of phosphate buffered saline (PBS, pH = 7.4) and n-octanol in an Eppendorf tube (1.5 mL). After vigorous mixing of the suspension for 3 min at rt, the vial was centrifuged at 9,000 rpm for 5 min (Biofuge 15, Heraeus Sepatech, Osterode, Germany) and 200 µL aliquots of both layers were measured in a γ-counter. The experiment was repeated at least five times.

[3] = ^natLu-labeled, read-out: IC50 [nM] (n = 3), ^natLu-labeled
[4] = ^natGa-labeled, read-out: IC50 [nM] (n = 3), ^natGa-labeled

Row | IC50 [1, 3] [nM] | Structure (SMILES) | logD7.4 (n ≥ 5), ^177Lu-labeled [2] | further results
1 | 4.9 ± 0.8 | CCCC[C@@H](C(=O)N[C@@H](CC(=O)O)C(=O)N[C@@H](Cc1cccc2ccccc12)C(N)=O)N(C)C(=O)[C@H](Cc1c[nH]c2ccccc12)NC(=O)CNC(=O)[C@H](Cc1ccc(O)cc1)NC(=O)CNC(=O)CNC(=O)CN1CCN(CC(=O)O)CCN(CC(=O)O)CCN(CC(=O)O)CC1 [DOTA-CCK-56, DOTA-(Gly)2-Tyr-Gly-Trp-(N-Me)NIe-Asp-1-Nal-NH2] ({DOTA}-GGYGW[NMeNle]D[1Nal]-NH2) | −1.38 ± 0.07 | –
2 | 5.6 ± 0.5 | CCCC[C@@H](C(=O)N[C@@H](CC(=O)O)C(=O)N[C@@H](Cc1cccc2ccccc12)C(N)=O)N(C)C(=O)[C@H](Cc1c[nH]c2ccccc12)NC(=O)CNC(=O)[C@H](Cc1ccc(O)cc1)NC(=O)[C@H](C)NC(=O)CNC(=O)CN1CCN(CC(=O)O)CCN(CC(=O)O)CCN(CC(=O)O)CC1 [DOTA-CCK-57, DOTA-Gly-Ala-Tyr-Gly-Trp-(N-Me)Nle-Asp-1-Nal-NH2] ({DOTA}-GAYGW[NMeNle]D[1Nal]-NH2) | −1.26 ± 0.08 | –
3 | 4.2 ± 0.5 | CCCC[C@@H](C(=O)N[C@@H](CC(=O)O)C(=O)N[C@@H](Cc1cccc2ccccc12)C(N)=O)N(C)C(=O)[C@H](Cc1c[nH]c2ccccc12)NC(=O)CNC(=O)[C@H](Cc1ccc(O)cc1)NC(=O)CNC(=O)CC[C@@H](NC(=O)CN1CCN(CC(=O)O)CCN(CC(=O)O)CCN(CC(=O)O)CC1)C(=O)O [DOTA-CCK-59, DOTA-γ-glu-Gly-Tyr-Gly-Trp-(N-Me)Nle-Asp-1-Nal-NH2] ({DOTA-d(γGlu)}-GYGW[NMeNle]D[1Nal]-NH2) | −2.63 ± 0.05 | –
4 | 7.9 ± 0.43 | CCCC[C@@H](C(=O)N[C@@H](CC(=O)O)C(=O)N[C@@H](Cc1cccc2ccccc12)C(N)=O)N(C)C(=O)[C@H](Cc1c[nH]c2ccccc12)NC(=O)CNC(=O)CNC(=O)[C@H](C)NC(=O)CC[C@@H](NC(=O)CN1CCN(CC(=O)O)CCN(CC(=O)O)CCN(CC(=O)O)CC1)C(=O)O [DOTA-CCK-60, DOTA-γ-glu-Ala-(Gly)2-Trp-(N-Me)Nle-Asp-1-Nal-NH2] ({DOTA-d(γGlu)}-AGGW[NMeNle]D[1Nal]-NH2) | −2.56 ± 0.09 | –
5 | 8.2 ± 1.3 | CCCC[C@@H](C(=O)N[C@@H](CC(=O)O)C(=O)N[C@@H](Cc1cccc2ccccc12)C(N)=O)N(C)C(=O)[C@H](Cc1c[nH]c2ccccc12)NC(=O)CNC(=O)CNC(=O)CNC(=O)CC[C@@H](NC(=O)CN1CCN(CC(=O)O)CCN(CC(=O)O)CCN(CC(=O)O)CC1)C(=O)O [DOTA-CCK-62, DOTA-γ-glu-(Gly)3-Trp-(N-Me)Nle-Asp-1-Nal-NH2] ({DOTA-d(γGlu)}-GGGW[NMeNle]D[1Nal]-NH2) | −2.66 ± 0.06 | –
6 | 4.8 ± 1.1 | CCCC[C@@H](C(=O)N[C@@H](CC(=O)O)C(=O)N[C@@H](Cc1cccc2ccccc12)C(N)=O)N(C)C(=O)[C@H](Cc1c[nH]c2ccccc12)NC(=O)CCOCCOCCOCCNC(=O)CC[C@@H](NC(=O)CN1CCN(CC(=O)O)CCN(CC(=O)O)CCN(CC(=O)O)CC1)C(=O)O [DOTA-CCK-63, DOTA-γ-glu-(PEG)2-Trp-(N-Me)Nle-Asp-1-Nal-NH2] ({DOTA-d(γGlu)-PEG3}-W[NMeNle]D[1Nal]-NH2) | −3.03 ± 0.09 | logD7.4 (n ≥ 5), ^177Lu-labeled ([2]; listed as [^177Lu]Lu-DOTA-CCK-63): < -3
7 | – | CCCC[C@@H](C(=O)N[C@@H](CC(=O)O)C(=O)N[C@@H](Cc1cccc2ccccc12)C(N)=O)N(C)C(=O)[C@H](Cc1c[nH]c2ccccc12)NC(=O)COCCOCCNC(=O)CC[C@@H](NC(=O)CN1CCN(CC(=O)O)CCN(CC(=O)O)CCN(CC(=O)O)CC1)C(=O)O [DOTA-CCK-77, DOTA-γ-glu-PEG-Trp-(N-Me)Nle-Asp-1-Nal-NH2] ({DOTA-d(γGlu)-AEEA}-W[NMeNle]D[1Nal]-NH2) | −3.09 ± 0.06 | logD7.4 (n ≥ 5), ^177Lu-labeled ([2]; listed as [^177Lu]Lu-DOTA-CCK-77): < -3
8 | – | CCCC[C@H](NC(=O)[C@H](Cc1c[nH]c2ccccc12)NC(=O)CNC(=O)[C@H](Cc1ccc(O)cc1)NC(=O)[C@H](C)NC(=O)CC[C@@H](NC(=O)CC[C@@H](NC(=O)CC[C@@H](NC(=O)CC[C@@H](NC(=O)CC[C@@H](NC(=O)[C@H](N)CCCNC(=O)[C@@H](CNC(=O)c1ccc([Si](F)(C(C)(C)C)C(C)(C)C)cc1)NC(=O)CN1CCN(CC(=O)O)CCN(CC(=O)O)CCN(CC(=O)O)CC1)C(=O)O)C(=O)O)C(=O)O)C(=O)O)C(=O)O)C(=O)N[C@@H](CC(=O)O)C(=O)N[C@@H](Cc1ccccc1)C(N)=O [DOTA-MG-SiFA-27, DOTA-dap(SiFA)-γ-orn-(γ-glu)5-F11N] (H-[dOrn](X3)[d(γGlu)][d(γGlu)][d(γGlu)][d(γGlu)][d(γGlu)]AYGW[Nle]DF-NH2) | −1.90 ± 0.10 | –
9 | – | CCCC[C@H](NC(=O)[C@H](Cc1c[nH]c2ccccc12)NC(=O)CNC(=O)[C@H](Cc1ccc(O)cc1)NC(=O)[C@H](C)NC(=O)CC[C@@H](NC(=O)CC[C@@H](NC(=O)CC[C@@H](NC(=O)CC[C@@H](NC(=O)CC[C@@H](NC(=O)CC[C@@H](NC(=O)CC[C@@H](NC(=O)[C@H](N)CCCNC(=O)[C@@H](CNC(=O)c1ccc([Si](F)(C(C)(C)C)C(C)(C)C)cc1)NC(=O)CN1CCN(CC(=O)O)CCN(CC(=O)O)CCN(CC(=O)O)CC1)C(=O)O)C(=O)O)C(=O)O)C(=O)O)C(=O)O)C(=O)O)C(=O)O)C(=O)N[C@@H](CC(=O)O)C(=O)N[C@@H](Cc1ccccc1)C(N)=O [DOTA-MG-SiFA-28, DOTA-dap(SiFA)-γ-orn-(γ-glu)7-F11N] | −1.81 ± 0.10 | –
10 | – | CCCC[C@H](NC(=O)[C@H](Cc1c[nH]c2ccccc12)NC(=O)CNC(=O)[C@H](Cc1ccc(O)cc1)NC(=O)[C@H](C)NC(=O)CC[C@@H](NC(=O)CC[C@@H](NC(=O)CC[C@@H](NC(=O)CC[C@@H](NC(=O)CC[C@@H](NC(=O)CC[C@@H](NC(=O)CC[C@@H](NC(=O)[C@H](N)CCCCNC(=O)[C@@H](CNC(=O)c1ccc([Si](F)(C(C)(C)C)C(C)(C)C)cc1)NC(=O)CN1CCN(CC(=O)O)CCN(CC(=O)O)CCN(CC(=O)O)CC1)C(=O)O)C(=O)O)C(=O)O)C(=O)O)C(=O)O)C(=O)O)C(=O)O)C(=O)N[C@@H](CC(=O)O)C(=O)N[C@@H](Cc1ccccc1)C(N)=O [DOTA-MG-SiFA-30, DOTA-dap(SiFA)-γ-lys-(γ-glu)7-F11N] | −1.74 ± 0.03 | –
11 | – | CCCC[C@H](NC(=O)[C@H](Cc1c[nH]c2ccccc12)NC(=O)CNC(=O)[C@H](Cc1ccc(O)cc1)NC(=O)[C@H](C)NC(=O)CC[C@@H](NC(=O)CC[C@@H](NC(=O)CC[C@@H](NC(=O)CC[C@@H](NC(=O)CC[C@@H](NC(=O)CC[C@@H](NC(=O)CC[C@@H](NC(=O)[C@H](N)CCCCNC(=O)[C@@H](CNC(=O)c1ccc([Si](F)(C(C)(C)C)C(C)(C)C)cc1)NC(=O)[C@H](N)CCCCNC(=O)CN1CCN(CC(=O)O)CCN(CC(=O)O)CCN(CC(=O)O)CC1)C(=O)O)C(=O)O)C(=O)O)C(=O)O)C(=O)O)C(=O)O)C(=O)O)C(=O)N[C@@H](CC(=O)O)C(=O)N[C@@H](Cc1ccccc1)C(N)=O [DOTA-MG-SiFA-31, DOTA-γ-lys-dap(SiFA)-γ-lys-(γ-glu)7-F11N] | −1.88 ± 0.10 | –
12 | – | CCCC[C@@H](C(=O)N[C@@H](CC(=O)O)C(=O)N[C@@H](Cc1cccc2ccccc12)C(N)=O)N(C)C(=O)[C@H](Cc1c[nH]c2ccccc12)NC(=O)CCOCCOCCOCCOCCNC(=O)CC[C@@H](NC(=O)CCC(C(=O)O)N1CCN(CC(=O)O)CCN(CC(=O)O)CC1)C(=O)O (stereo partly drawn) [NODAGA-CCK-66, NODAGA-γ-glu-(PEG)3-Trp-(N-Me)Nle-Asp-1-Nal-NH2] ({NODAGA-d(γGlu)-PEG4}-W[NMeNle]D[1Nal]-NH2) | – | IC50 [1, 4]: 4.9 ± 0.7 nM
13 | – | CCCC[C@@H](C(=O)N[C@@H](CC(=O)O)C(=O)N[C@@H](Cc1cccc2ccccc12)C(N)=O)N(C)C(=O)[C@H](Cc1c[nH]c2ccccc12)NC(=O)CCOCCOCCOCCOCCNC(=O)CC[C@@H](NC(=O)CN1CCN(CC(=O)O)CCN(CC(=O)O)CC1)C(=O)O [NOTA-CCK-66, NOTA-γ-glu-(PEG)3-Trp-(N-Me)Nle-Asp-1-Nal-NH2] ({NOTA-d(γGlu)-PEG4}-W[NMeNle]D[1Nal]-NH2) | – | IC50 ([1]; [^19F]AlF-complexated, read-out: IC50 [nM] (n = 3), ^natAlF-labeled): 10.4 ± 0.9 nM; IC50 [1, 4]: 9.7 ± 1 nM
